Measurements published in patent US20250154279A1 (BEIGENE, published 2025).
Positions count from the first letter of the chain named. In names and notes the source's numbering stands. Blank lines part the entries; values can stand above or below the binder they belong to.

Key:
[1] = target: T1, human GPC3 expressed on HepG2 cells (human, UniProt P51654 25-554); assay: flow cytometry on HepG2 cells
T1 construct: also called native huGPC3; native GPC3
Method: (§1) Briefly, anti-kappa antibody was immobilized on an activated CM5 biosensor chip (Cat.: BR100839, GE Life Sciences). […] Then a serial dilution (6.0 nM to 2150 nM) of human CD137 ECD-mIgG2a or huGPC3-His were flowed over the chip surface and changes in surface plasmon resonance signals were analyzed to calculate the association rates (kₒₙ) and dissociation rates (koff) by using the one-to-one Langmuir binding model (BIA Evaluation Software, GE Life Sciences). The equilibrium dissociation constant (KD) was calculated as the ratio koff/kₒₙ. […] Goat anti-Human IgG was used as secondary antibody to detect antibody binding to the cell surface. EC₅₀ values for dose-dependent binding to human native CD137 were determined by fitting the dose-response data to the four-parameter logistic model with GraphPad Prism™. […] Goat anti-Human IgG was used as secondary antibody to detect antibody binding to the cell surface. EC₅₀ values for dose-dependent binding to human native GPC3 were determined by fitting the dose-response data to the four-parameter logistic model with GraphPad Prism™.

huGPC3-His = target: T2, huGPC3-His (human, UniProt P51654 25-559, limits assumed); assay: SPR (BIAcore T-200), BE-774 captured by anti-kappa antibody, huGPC3-His flowed over
T2 construct: not shown: His tag
Method: as §1

[2] = target: T3, human CD137 over-expressed on HuT78 cells (HuT78/CD137) (human, UniProt Q07011 24-255); assay: flow cytometry on live Hut78/huCD137 cells
T3 construct: also called Hut78/huCD137; native CD137
Method: as §1

human CD137 ECD-mIgG2a = target: T4, human CD137 ECD-mIgG2a (human); assay: SPR (BIAcore T-200), BE-774 captured by anti-kappa antibody, human CD137 ECD-mIgG2a flowed over
T4 construct: also called huCD137
Method: as §1

[3] = target: T3, human CD137 over-expressed on HuT78 …; assay: FACS on HuT78/CD137 cells
[4] = target: T3, human CD137 over-expressed on HuT78 …; assay: flow cytometry on HuT78/CD137 cells, detection anti-hFc 647, no CD137L added
[5] = target: T1, human GPC3 expressed on HepG2 cells; assay: FACS on HepG2 cells
[6] = target: T5, human CD137 (Cat.: 41B-H5256, Acrobio, CHINA) (human, UniProt Q07011 24-186); assay: SPR
T5 construct: Bought protein
Method: (§2) The binding kinetics of the antibodies were measured using surface plasmon resonance (SPR). SPR was used to measure the on-rate constant (Kₐ) and off-rate constant (Kd) of the antibodies to recombinant proteins of CD137 and GPC3 and then determined the affinity constant (KD).

[7] = target: T6, human GPC3 (Cat.: 10088-H08H, Sino Biological, CHINA) (human, UniProt P51654 25-559); assay: SPR
T6 construct: Bought protein
Method: as §2

[8] = target: T7, cynomolgus monkey GPC3 (Cat.: GP3-C5225, Acrobio, CHINA) (cynomolgus monkey, UniProt A0A2K5VK50 24-558); assay: SPR
T7 construct: also called Cyno GPC3
Method: as §2

[9] = target: T8, cynomolgus monkey CD137 ECD (cynomolgus monkey); assay: SPR
T8 construct: also called Cyno CD137; Cyno CD137 ECD
T8 chain: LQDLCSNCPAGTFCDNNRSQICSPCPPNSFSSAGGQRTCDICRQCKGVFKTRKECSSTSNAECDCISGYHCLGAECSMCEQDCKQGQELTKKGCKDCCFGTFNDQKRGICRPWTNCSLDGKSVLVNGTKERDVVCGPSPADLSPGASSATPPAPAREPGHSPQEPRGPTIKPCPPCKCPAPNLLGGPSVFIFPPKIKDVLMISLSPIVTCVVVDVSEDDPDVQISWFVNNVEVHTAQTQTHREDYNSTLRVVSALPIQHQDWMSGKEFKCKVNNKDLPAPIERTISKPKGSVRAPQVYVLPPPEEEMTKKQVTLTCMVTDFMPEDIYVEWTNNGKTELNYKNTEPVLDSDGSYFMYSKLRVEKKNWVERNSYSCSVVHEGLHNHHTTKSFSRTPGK
Method: as §2

[10] = target: T9, human CD137 (recombinant antigen of the ELISA of Example 2 and the SPR of Example 3; construct not stated) (human, UniProt Q07011 24-186, limits assumed); assay: SPR, antibody captured on anti-human Fc surface, Test 1
T9 construct: also called huCD137
Excerpt: (§3) For affinity determination, antibodies were captured by anti-human Fe surface, and used in the affinity—assay based on surface plasmon resonance (SPR) technology.

[11] = target: T3, human CD137 over-expressed on HuT78 …; assay: flow cytometry on live HuT78/CD137 cells
Method: To evaluate the binding activity of anti-CD137 antibody to bind native CD137 on live cells, HuT78 cells were engineered to over-express human CD137. Live HuT78/CD137 cells were seeded in a 96-well plate, and were incubated with a series of dilutions of anti-CD137 antibody. Goat anti-Human IgG was used as secondary antibody to detect antibody binding to the cell surface. EC₅₀ values for dose-dependent binding to human native CD137 were determined by fitting the dose-response data to the four-parameter logistic model with GraphPad Prism™. The humanized VHHs retained sub-nanomolar binding affinity to native CD137.

[12] = target: T9, human CD137 (recombinant antigen of the …); assay: SPR, antibody captured on anti-human Fc surface, Test 2
Excerpt: as §3

[13] = target: T9, human CD137 (recombinant antigen of the …); assay: SPR
[14] = target: T9, human CD137 (recombinant antigen of the …); assay: SPR; remark: listed apart in the source

T3 sequence (Q07011 24-255 limits assumed): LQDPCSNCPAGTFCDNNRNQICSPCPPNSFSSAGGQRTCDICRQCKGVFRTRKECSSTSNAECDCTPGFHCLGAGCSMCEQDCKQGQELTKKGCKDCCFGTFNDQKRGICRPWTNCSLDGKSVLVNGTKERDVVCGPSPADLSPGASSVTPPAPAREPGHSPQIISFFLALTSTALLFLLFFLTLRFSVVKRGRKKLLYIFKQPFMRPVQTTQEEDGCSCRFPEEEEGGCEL
T2 sequence (P51654 25-559 limits assumed): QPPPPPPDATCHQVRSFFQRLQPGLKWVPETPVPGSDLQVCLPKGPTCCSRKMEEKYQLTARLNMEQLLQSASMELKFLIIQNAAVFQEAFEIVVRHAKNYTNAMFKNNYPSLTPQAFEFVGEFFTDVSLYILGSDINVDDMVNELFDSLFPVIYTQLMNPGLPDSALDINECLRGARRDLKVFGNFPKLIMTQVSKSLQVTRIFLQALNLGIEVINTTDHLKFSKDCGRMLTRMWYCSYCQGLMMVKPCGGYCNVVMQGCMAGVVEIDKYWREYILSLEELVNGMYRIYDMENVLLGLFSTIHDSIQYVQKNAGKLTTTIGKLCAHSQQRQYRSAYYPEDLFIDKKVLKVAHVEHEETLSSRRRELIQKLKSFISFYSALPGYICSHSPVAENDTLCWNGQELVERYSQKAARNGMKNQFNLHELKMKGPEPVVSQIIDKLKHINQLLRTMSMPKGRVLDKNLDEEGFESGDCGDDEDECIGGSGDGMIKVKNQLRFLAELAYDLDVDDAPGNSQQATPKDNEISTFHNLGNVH
T6 sequence (P51654 25-559 limits assumed): as above
T1 sequence (P51654 25-554 limits assumed): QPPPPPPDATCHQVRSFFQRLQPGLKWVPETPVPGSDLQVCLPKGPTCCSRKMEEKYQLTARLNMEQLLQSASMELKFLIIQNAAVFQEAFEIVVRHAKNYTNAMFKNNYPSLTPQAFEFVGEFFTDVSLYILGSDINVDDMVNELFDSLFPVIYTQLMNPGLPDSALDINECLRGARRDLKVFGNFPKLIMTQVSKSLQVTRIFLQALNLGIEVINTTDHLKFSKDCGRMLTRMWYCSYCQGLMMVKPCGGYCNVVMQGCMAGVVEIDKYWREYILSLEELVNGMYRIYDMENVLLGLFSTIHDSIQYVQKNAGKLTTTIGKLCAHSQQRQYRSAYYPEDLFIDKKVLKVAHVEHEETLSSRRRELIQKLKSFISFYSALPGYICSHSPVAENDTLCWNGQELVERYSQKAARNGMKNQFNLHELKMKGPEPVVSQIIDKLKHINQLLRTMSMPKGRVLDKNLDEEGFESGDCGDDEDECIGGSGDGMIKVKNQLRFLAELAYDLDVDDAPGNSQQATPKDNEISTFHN

EC50 [1]: 0.9 nM | Kd (huGPC3-His): 1.01 nM | koff (huGPC3-His): 0.00022 s⁻¹ | kon (huGPC3-His): 218000 M⁻¹ s⁻¹ | EC50 [2]: 0.7 nM | Kd (human CD137 ECD-mIgG2a): 0.529 nM | koff (human CD137 ECD-mIgG2a): 0.000425 s⁻¹ | kon (human CD137 ECD-mIgG2a): 804000 M⁻¹ s⁻¹
B1: BE-774 (anti-GPC3 x CD137 bispecific antibody, GPC3 antibody + VHH BGA-9612, IgG1mf Fc-YTE) (bispecific antibody)
heavy: QVQLVQSGAEVKKPGASVKVSCKASGYTFTDYEMHWVRQAPGQGLEWMGALDPKTGDTAYSQKFKGRVTLTADKSTSTAYMELSSLTSEDTAVYYCTRFYSYTYWGQGTLVTVSSASTKGPSVFPLAPSSKSTSGGTAALGCLVKDYFPEPVTVSWNSGALTSGVHTFPAVLQSSGLYSLSSVVTVPSSSLGTQTYICNVNHKPSNTKVDKKVEPKSCDKTHTCPPCPAPPAAGPSVFLFPPKPKDTLYITREPEVTCVVVDVSHEDPEVKFNWYVDGVEVHNAKTKPREEQYNSTYRVVSVLTVLHQDWLNGKEYKCKVSNKALAAPIEKTISKAKGQPREPQVYTLPPSREEMTKNQVSLTCLVKGFYPSDIAVEWESNGQPENNYKTTPPVLDSDGSFFLYSKLTVDKSRWQQGNVFSCSVMHEALHNHYTQKSLSLSPGKGGGGSEVQLVESGGGTVQPGDSLRLSCAASGRTFDNYAVGWFRQAPGKERQYVGTYWSGYAHYGDFENNRFTISRDNAKNTVYLQMDNLKPEDTAVYYCAISLKYPMATVTPDYQGQGTQVTVSS
light: DVVMTQSPLSLPVTPGEPASISCRSSQSLVHSNRNTYLHWYLQKPGQSPQLLIYKVSNRFSGVPDRFSGSGSGTDFTLKISRVEAEDVGVYYCSQNTHVPPTFGQGTKLEIKRTVAAPSVFIFPPSDEQLKSGTASVVCLLNNFYPREAKVQWKVDNALQSGNSQESVTEQDSKDSTYSLSSTLTLSKADYEKHKVYACEVTHQGLSSPVTKSFNRGEC

EC50 [3]: 0.69 nM | EC50 (read off the curve) [4]: ~0.1 mg/L | EC50 [5]: 1.09 nM | Kd [6]: 3.6 nM | koff [6]: 0.00042 s⁻¹ | kon [6]: 120000 M⁻¹ s⁻¹ | Kd [7]: 2.4 nM | koff [7]: 0.00014 s⁻¹ | kon [7]: 58000 M⁻¹ s⁻¹ | Kd [8]: 0.53 nM | koff [8]: 0.00011 s⁻¹ | kon [8]: 210000 M⁻¹ s⁻¹ | Kd [9]: 4.4 nM | koff [9]: 0.00055 s⁻¹ | kon [9]: 130000 M⁻¹ s⁻¹
B2: BE-915 (anti-GPC3 x CD137 bispecific antibody, GPC3 antibody + VHH BGA-2524, IgG1mf Fc-YTE) (bispecific antibody)
heavy: B1 heavy with T460L, D465G, Q495E, D531N, K534R
light: B1 light

Kd [10]: 20.3 nM | koff [10]: 0.000419 s⁻¹ | kon [10]: 20700 M⁻¹ s⁻¹ | EC50 [11]: 0.85 nM | Kd [12]: 15.2 nM | koff [12]: 0.000754 s⁻¹ | kon [12]: 49500 M⁻¹ s⁻¹ | Kd [13]: 20.3 nM | koff [13]: 0.000419 s⁻¹ | kon [13]: 20700 M⁻¹ s⁻¹
B3: BGA-9612 (chimeric Fc-VHH, as compared with the humanized VHHs in Examples 3-4) (VHH)
chain: EPKSSDKTHTCPPCPAPPAAGPSVFLFPPKPKDTLMISRTPEVTCVVVDVSHEDPEVKFNWYVDGVEVHNAKTKPREEQYNSTYRVVSVLTVLHQDWLNGKEYKCKVSNKALAAPIEKTISKAKGQPREPQVYTLPPSREEMTKNQVSLTCLVKGFYPSDIAVEWESNGQPENNYKTTPPVLDSDGSFFLYSKLTVDKSRWQQGNVFSCSVMHEALHNHYTQKSLSLSPGKGGGGSQVQLVESGGGTVQPGDSLRLSCAASGRTFDNYAVGWFRQAPGKERQYVGTYWSGYAHYGDFENNRFTISRDNAKNTVYLQMDNLKPEDTAVYYCAISLKYPMATVTPDYQGQGTQVTVSS

EC50 [11]: 0.88 nM | Kd [12]: 11.7 nM | koff [12]: 0.000719 s⁻¹ | kon [12]: 61600 M⁻¹ s⁻¹
B4: BGA-7031 (humanized VHH, Fc-VHH format) (VHH)
chain: B3 chain with Q237E, T247L, D252G, Q282E, A309S, D318N, K321R

binding result [14]: no binding
B5: BGA-6582-I94K (VHH)
chain: EPKSSDKTHTCPPCPAPPAAGPSVFLFPPKPKDTLMISRTPEVTCVVVDVSHEDPEVKFNWYVDGVEVHNAKTKPREEQYNSTYRVVSVLTVLHQDWLNGKEYKCKVSNKALAAPIEKTISKAKGQPREPQVYTLPPSREEMTKNQVSLTCLVKGFYPSDIAVEWESNGQPENNYKTTPPVLDSDGSFFLYSKLTVDKSRWQQGNVFSCSVMHEALHNHYTQKSLSLSPGKGGGGSEVQLLESGGGLVQPGGSLRLSCAASGRTFDNYAVGWFRQAPGKERQYVGTYWSGYAHYGDFENNRFTISRDNSKNTVYLQMNSLRAEDTAVYYCAKSLKYPMATVTPDYQGQGTLVTVSS

Kd [10]: 27.7 nM | koff [10]: 0.000588 s⁻¹ | kon [10]: 21200 M⁻¹ s⁻¹ | Kd [13]: 27.7 nM | koff [13]: 0.000588 s⁻¹ | kon [13]: 21200 M⁻¹ s⁻¹ | Kd [14]: 13.6 nM | koff [14]: 0.000593 s⁻¹ | kon [14]: 43500 M⁻¹ s⁻¹
B6: BGA-6582 (humanized VHH from BGA-9612, Fc-VHH format) (VHH)
chain: B5 chain with K332I

binding result [14]: no binding
B7: BGA-6582-G49S (VHH)
chain: B5 chain with G285S, K332I

Kd [14]: 9.16 nM | koff [14]: 0.000242 s⁻¹ | kon [14]: 26400 M⁻¹ s⁻¹
B8: BGA-6582-E44G (VHH)
chain: B5 chain with E280G, K332I

Kd [14]: 13.6 nM | koff [14]: 0.000593 s⁻¹ | kon [14]: 43500 M⁻¹ s⁻¹
B9: BGA-6582-V78L (VHH)
chain: B5 chain with V313L, K332I

EC50 [11]: 0.85 nM | Kd [12]: 17.6 nM | koff [12]: 0.000999 s⁻¹ | kon [12]: 56900 M⁻¹ s⁻¹
B10: BGA-3544 (humanized VHH, Fc-VHH format) (VHH)
chain: B5 chain with L241V, Q282E, N299K, N300G, S319N, A322P, K332I, L351Q

binding result [14]: no binding
B11: BGA-6582-Y47W (VHH)
chain: B5 chain with Y283W, K332I

Kd [14]: 14.3 nM | koff [14]: 0.000432 s⁻¹ | kon [14]: 30200 M⁻¹ s⁻¹
B12: BGA-3726 (BGA-6582-Q46E) (VHH)
chain: B5 chain with Q282E, K332I

Kd [14]: 14.8 nM | koff [14]: 0.000413 s⁻¹ | kon [14]: 27800 M⁻¹ s⁻¹
B13: BGA-6582-R45L (VHH)
chain: B5 chain with R281L, K332I

binding result [14]: no binding
B14: BGA-6582-F37V (VHH)
chain: B5 chain with F273V, K332I
